# In the supplement of paper PMC9112550, “Optimization of the antimicrobial peptide Bac7 by deep mutational scanning” (BMC Biology, 2022):
# Tested on: Escherichia coli TOP10
# Test: shrunken log2 fold change of peptide-encoding DNA abundance (4.5 h post-induction vs induction); higher = less antimicrobial activity (less host growth inhibition)
# Settings: time post-induction: 4.5 h; library: site-saturation at positions 5, 18, 19, 20
# 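Note: peptides expressed intracellularly from a pBAD plasmid library in pooled LB shake-flask culture, induced with 0.3% L-arabinose, DNA abundance read by NGS, three biological replicates, DESeq2 with apeglm shrinkage.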
row,Sequence,shrunken log2 fold change
1,RRIRPRPPRLPRPRPRPIQLPRP,-0.0767
2,RRIRTRPPRLPRPRPRPYIPPRP,-0.462
3,RRIRRRPPRLPRPRPRPEPQPRP,1.03
4,RRIRFRPPRLPRPRPRPICHPRP,-0.351
5,RRIRLRPPRLPRPRPRPHIHPRP,-0.29
6,RRIRGRPPRLPRPRPRPLQCPRP,0.904
7,RRIRLRPPRLPRPRPRPLTSPRP,-0.179
8,RRIRERPPRLPRPRPRPAHCPRP,0.0518
9,RRIRSRPPRLPRPRPRPKGMPRP,-0.0819
10,RRIRHRPPRLPRPRPRPAATPRP,0.292
11,RRIRFRPPRLPRPRPRPIGCPRP,-0.111
12,RRIRLRPPRLPRPRPRPWCNPRP,-0.121
13,RRIRMRPPRLPRPRPRPSQGPRP,0.179
14,RRIRPRPPRLPRPRPRPEHLPRP,-0.109
15,RRIRKRPPRLPRPRPRPVTTPRP,0.0429
16,RRIRKRPPRLPRPRPRPPVIPRP,0.063
17,RRIRTRPPRLPRPRPRPSPCPRP,-0.0588
18,RRIRSRPPRLPRPRPRPVPSPRP,0.391
19,RRIRHRPPRLPRPRPRPAIVPRP,-0.167
20,RRIRCRPPRLPRPRPRPGKGPRP,-0.025
21,RRIRHRPPRLPRPRPRPVIRPRP,0.00766
22,RRIRSRPPRLPRPRPRPKIQPRP,-0.311
23,RRIRRRPPRLPRPRPRPPLKPRP,0.302
24,RRIRFRPPRLPRPRPRPAGQPRP,0.171
25,RRIRHRPPRLPRPRPRPPQAPRP,0.236

row,Sequence,shrunken log2 fold change
1,RRIRVRPPRLPRPRPRPYFEPRP,-0.26
2,RRIRIRPPRLPRPRPRPQIYPRP,-1.08
3,RRIRSRPPRLPRPRPRPVLKPRP,-0.0386
4,RRIRGRPPRLPRPRPRPVNGPRP,-0.0658
5,RRIRWRPPRLPRPRPRPDRVPRP,0.0957
6,RRIRRRPPRLPRPRPRPRHIPRP,0.945
7,RRIRVRPPRLPRPRPRPDQCPRP,0.0862
8,RRIRCRPPRLPRPRPRPIGGPRP,-0.17
9,RRIRWRPPRLPRPRPRPMWPPRP,0.214
10,RRIRHRPPRLPRPRPRPDGDPRP,0.0106
11,RRIRKRPPRLPRPRPRPRTDPRP,0.206
12,RRIRNRPPRLPRPRPRPQDWPRP,-0.133
13,RRIRPRPPRLPRPRPRPHCKPRP,-0.633
14,RRIRNRPPRLPRPRPRPDTKPRP,-0.0152
15,RRIRRRPPRLPRPRPRPPIEPRP,0.339
16,RRIRYRPPRLPRPRPRPNMKPRP,-0.815
17,RRIRQRPPRLPRPRPRPVCVPRP,0.18
18,RRIRYRPPRLPRPRPRPCWYPRP,-1.03
19,RRIRDRPPRLPRPRPRPHHSPRP,-1.11
20,RRIRNRPPRLPRPRPRPEFKPRP,-0.0932
21,RRIRDRPPRLPRPRPRPIKMPRP,0.0713
22,RRIRERPPRLPRPRPRPDTDPRP,0.0402
23,RRIRARPPRLPRPRPRPLQVPRP,0.151
24,RRIRERPPRLPRPRPRPVCDPRP,0.078
25,RRIRKRPPRLPRPRPRPELNPRP,2.26

row,Sequence,shrunken log2 fold change
1,RRIRTRPPRLPRPRPRPTSPPRP,0.119
2,RRIRARPPRLPRPRPRPMTTPRP,0.505
3,RRIRRRPPRLPRPRPRPNFKPRP,0.092
4,RRIRWRPPRLPRPRPRPNYPPRP,-0.157
5,RRIRIRPPRLPRPRPRPSLGPRP,-0.245
6,RRIRGRPPRLPRPRPRPRHPPRP,0.442
7,RRIRYRPPRLPRPRPRPQRFPRP,-0.0259
8,RRIRDRPPRLPRPRPRPKPVPRP,0.00913
9,RRIRTRPPRLPRPRPRPNAAPRP,0.371
10,RRIRARPPRLPRPRPRPFKCPRP,-0.0202
11,RRIRYRPPRLPRPRPRPIHSPRP,-0.0447
12,RRIRCRPPRLPRPRPRPKEPPRP,0.302
13,RRIRGRPPRLPRPRPRPSCEPRP,0.507
14,RRIRKRPPRLPRPRPRPDRYPRP,-0.0261
15,RRIRLRPPRLPRPRPRPMFGPRP,0.109
16,RRIRERPPRLPRPRPRPRTAPRP,0.131
17,RRIRVRPPRLPRPRPRPVPYPRP,-0.0265
18,RRIRWRPPRLPRPRPRPPIEPRP,0.702
19,RRIRCRPPRLPRPRPRPVLWPRP,0.136
20,RRIRERPPRLPRPRPRPPTMPRP,-0.151
21,RRIRARPPRLPRPRPRPEEIPRP,0.289
22,RRIRMRPPRLPRPRPRPVEPPRP,0.207
23,RRIRGRPPRLPRPRPRPCGVPRP,0.578
24,RRIRTRPPRLPRPRPRPEGLPRP,0.0624
25,RRIRMRPPRLPRPRPRPEYCPRP,0.0929

row,Sequence,shrunken log2 fold change
1,RRIRRRPPRLPRPRPRPGMIPRP,-0.00969
2,RRIRTRPPRLPRPRPRPQSNPRP,-0.581
3,RRIRYRPPRLPRPRPRPRENPRP,0.0246
4,RRIRARPPRLPRPRPRPYDRPRP,-0.01
5,RRIRNRPPRLPRPRPRPGRRPRP,0.79
6,RRIRNRPPRLPRPRPRPSRLPRP,0.14
7,RRIRRRPPRLPRPRPRPRPAPRP,1.83
8,RRIRLRPPRLPRPRPRPMMNPRP,-0.18
9,RRIRERPPRLPRPRPRPQDCPRP,0.015
10,RRIRNRPPRLPRPRPRPFYSPRP,0.0464
11,RRIRKRPPRLPRPRPRPYMSPRP,0.0659
12,RRIRPRPPRLPRPRPRPHCMPRP,-0.195
13,RRIRMRPPRLPRPRPRPSLCPRP,0.694
14,RRIRVRPPRLPRPRPRPMVDPRP,-0.0954
15,RRIRLRPPRLPRPRPRPRSVPRP,-0.0722
16,RRIRRRPPRLPRPRPRPKLAPRP,0.333
17,RRIRTRPPRLPRPRPRPHVRPRP,-0.00804
18,RRIRGRPPRLPRPRPRPPHEPRP,0.773
19,RRIRWRPPRLPRPRPRPETRPRP,1.32
20,RRIRTRPPRLPRPRPRPWQQPRP,-0.0121
21,RRIRWRPPRLPRPRPRPPFFPRP,0.224
22,RRIRYRPPRLPRPRPRPNINPRP,-1.37
23,RRIRLRPPRLPRPRPRPYTEPRP,-0.284
24,RRIRSRPPRLPRPRPRPNFGPRP,-0.265
25,RRIRKRPPRLPRPRPRPLCDPRP,0.376

row,Sequence,shrunken log2 fold change
1,RRIRLRPPRLPRPRPRPFTSPRP,-0.153
2,RRIRIRPPRLPRPRPRPHNEPRP,-1.35
3,RRIRIRPPRLPRPRPRPCCWPRP,0.0865
4,RRIRNRPPRLPRPRPRPCGSPRP,-0.0353
5,RRIRSRPPRLPRPRPRPWFMPRP,-0.86
6,RRIRCRPPRLPRPRPRPPIDPRP,-0.071
7,RRIRRRPPRLPRPRPRPTYWPRP,-0.144
8,RRIRFRPPRLPRPRPRPQKVPRP,-0.194
9,RRIRLRPPRLPRPRPRPFWLPRP,0.0573
10,RRIRCRPPRLPRPRPRPSPHPRP,-0.144
11,RRIRERPPRLPRPRPRPMIIPRP,-0.317
12,RRIRNRPPRLPRPRPRPFVRPRP,-0.0373
13,RRIRIRPPRLPRPRPRPIYDPRP,-0.471
14,RRIRCRPPRLPRPRPRPMVWPRP,0.412
15,RRIRERPPRLPRPRPRPPHKPRP,0.0221
16,RRIRLRPPRLPRPRPRPFNQPRP,-0.122
17,RRIRWRPPRLPRPRPRPYWEPRP,-0.0146
18,RRIRNRPPRLPRPRPRPHPCPRP,0.231
19,RRIRRRPPRLPRPRPRPAWNPRP,0.141
20,RRIRGRPPRLPRPRPRPHAEPRP,2.68
21,RRIRWRPPRLPRPRPRPQGDPRP,-0.0316
22,RRIRFRPPRLPRPRPRPDPLPRP,0.165
23,RRIRVRPPRLPRPRPRPVQGPRP,0.0692
24,RRIRIRPPRLPRPRPRPEWLPRP,-0.216
25,RRIRTRPPRLPRPRPRPMTEPRP,-0.0359

row,Sequence,shrunken log2 fold change
1,RRIRWRPPRLPRPRPRPLKKPRP,0.0518
2,RRIRVRPPRLPRPRPRPGWMPRP,0.159
3,RRIRQRPPRLPRPRPRPTCKPRP,0.0706
4,RRIRSRPPRLPRPRPRPDSYPRP,-0.221
5,RRIRNRPPRLPRPRPRPRDAPRP,-0.163
6,RRIRTRPPRLPRPRPRPGVKPRP,0.14
7,RRIRFRPPRLPRPRPRPPTHPRP,0.22
8,RRIRSRPPRLPRPRPRPKCDPRP,0.00444
9,RRIRTRPPRLPRPRPRPHYEPRP,-0.174
10,RRIRVRPPRLPRPRPRPEMTPRP,0.0232
11,RRIRMRPPRLPRPRPRPCQTPRP,0.0245
12,RRIRRRPPRLPRPRPRPGLAPRP,0.763
13,RRIRTRPPRLPRPRPRPPCRPRP,0.121
14,RRIRERPPRLPRPRPRPYMVPRP,-0.832
15,RRIRARPPRLPRPRPRPFSQPRP,-0.0436
16,RRIRCRPPRLPRPRPRPPFEPRP,0.136
17,RRIRSRPPRLPRPRPRPIQCPRP,0.0235
18,RRIRRRPPRLPRPRPRPSLQPRP,0.334
19,RRIRCRPPRLPRPRPRPLRKPRP,0.734
20,RRIRPRPPRLPRPRPRPEFDPRP,0.33
21,RRIRNRPPRLPRPRPRPTIMPRP,-0.0883
22,RRIRIRPPRLPRPRPRPHSEPRP,-0.13
23,RRIRERPPRLPRPRPRPVDEPRP,-0.56
24,RRIRRRPPRLPRPRPRPCLHPRP,0.0897
25,RRIRTRPPRLPRPRPRPFQLPRP,-0.138
